Experimental data taken from paper PMC4039369, “Nucleotide degradation and ribose salvage in yeast” (Molecular Systems Biology, 2013).

Tests used:
[1] = substrate: Nc1ccn([C@@H]2O[C@H](COP(=O)(O)O)[C@@H](O)[C@H]2O)c(=O)n1; experiment: phosphate release (phosphatase) assay, Michaelis-Menten fit; type: biochemical, Saccharomyces cerevisiae; settings: 5 mM MgCl2; substrate range 0.001-9.5 mM
Source text: phosphate release (phosphatase) assay, Michaelis-Menten fit on Phm8 | Kinetic characterization of Phm8 and Sdt1 toward their most preferred substrate CMP

[2] = substrate: Nc1ccn([C@@H]2O[C@H](COP(=O)(O)O)[C@@H](O)[C@H]2O)c(=O)n1; experiment: as above; type: biochemical, Saccharomyces cerevisiae; settings: 5 mM MgCl2; substrate range 0.001-9.5 mM; remark: listed apart in the source
Source text: phosphate release (phosphatase) assay, Michaelis-Menten fit on Sdt1 | Kinetic characterization of Phm8 and Sdt1 toward their most preferred substrate CMP

B1: Phm8 (Saccharomyces cerevisiae S288C) (protein)
chain: MTIAKDYRTIYRNQIKKQIRLNQEHLQSLTHLGSQINFEVDPPKLPDPDPARKVFFFDIDNTLYRKSTKVQLLMQQSLSNFFKYELGFDDDEAERLIESYYQEYGLSVKGLIKNKQIDDVLQYNTFIDDSLPLQDYLKPDWKLRELLINLKKKKLGKFDKLWLFTNSYKNHAIRCVKILGIADLFDGITYCHYDRPIEEEFICKPDPKFFETAKLQSGLSSFANAWFIDDNESNVRSALSMGMGHVIHLIEDYQYESENIVTKDHKNKQQFSILKDILEIPLIMDVEVYRPSSIAIKEMEELEEEGEAVNWSNQQINVQSS
For B1, the Km [1] was 63 ± 2 µM and the kcat [1] was 19.8 ± 0.1 s⁻¹.

B2: Sdt1 (Saccharomyces cerevisiae S288C) (protein)
chain: MTVEYTASDLATYQNEVNEQIAKNKAHLESLTHPGSKVTFPIDQDISATPQNPNLKVFFFDIDNCLYKSSTRIHDLMQQSILRFFQTHLKLSPEDAHVLNNSYYKEYGLAIRGLVMFHKVNALEYNRLVDDSLPLQDILKPDIPLRNMLLRLRQSGKIDKLWLFTNAYKNHAIRCLRLLGIADLFDGLTYCDYSRTDTLVCKPHVKAFEKAMKESGLARYENAYFIDDSGKNIETGIKLGMKTCIHLVENEVNEILGQTPEGAIVISDILELPHVVSDLF
B2 gave a Km [2] of 1700 ± 200 µM and a kcat [2] of 0.54 ± 0.02 s⁻¹.
